This is an account of results in patent US20240109974A1 (SHANDONG SIMCERE BIOPHARMACEUTICAL, published 2024).

Numbering of substitutions follows the chain as printed.

The chains are these.
B1: 219-Hu4 (antibody, V domains shown)
VH: QVQLVQSGAEVKKPGSSVKVSCKASGYSFTNYWMNWVKQAPGQGLEWIGMIHPSDTETRLNQNFKDKATLTVDKSTSTAYMELSSLRSEDTAVYYCARGEGLGAARSVSMDYWGQGTLVTVSS
VL: DIQMTQSPSSLSASVGDRVTITCRASQDISNYLNWYQQKPDGTVKLLIYYTAILHSGVPSRFSGSGSGTDYSLTISSLQPEDFATYFCQQGNTLPWTFGQGTKVEIK
notes: also called VH6 + VL5
B2: 219-Hu5 (antibody, V domains shown)
VH: B1 VH with K38R, I48M, K67R, A68V, L70I
VL: B1 VL
notes: also called VH7 + VL5
B3: 224-Hu1 (antibody, V domains shown)
VH: QVQLVQSGAEVKKPGASVKVSCKASGFNNKDIYMHWVRQAPGQGLEWIGRIDPATGNTKHDPKFQDRVTMTSDTSTNTVYMELSSLRSEDTAVYYCARSPYGDFGAMDYWGQGTLVTVSS
VL: DIQMTQSPSSLSASVGDRVTITCTASSSVSSNYLHWYQQKPGKAPKLWIYSTSNLPSGVPSRFSGSGSGTDFTLTISSLQPEDFATYYCHQYHRSPWTFGQGTKVEIK
notes: Humanized form of #224; also called VH8 + VL6
B4: 224-Hu7 (antibody, V domains shown)
VH: QVQLVQSGSELKKPGASVKVSCKASGFNNKDIYMHWVRQAPGQGLEWMGRIDPATGNTKHDPKFQDKAVLSSDTSVSTAYLQISSLKAEDTAVYYCARSPYGDFGAMDYWGQGTLVTVSS
VL: B3 VL with W48L
notes: Humanized form of #224; also called VH9 + VL10
B5: 224-Hu3 (antibody, V domains shown)
VH: B4 VH
VL: B3 VL with W48L, P81A, F84A
notes: Humanized form of #224; also called VH9 + VL8
B6: 224-Hu2 (antibody, V domains shown)
VH: B4 VH
VL: B3 VL with K43S, A44S
notes: Humanized form of #224; also called VH9 + VL7
B7: 224-Hu5 (antibody, V domains shown)
VH: B4 VH
VL: B3 VL with W48L, F72Y, T73S
notes: Humanized form of #224; also called VH9 + VL9
B8: 224-Hu6 (antibody, V domains shown)
VH: B3 VH
VL: B3 VL with K43S, A44S
notes: Humanized form of #224; also called VH8 + VL7
B9: 224-Hu4 (antibody, V domains shown)
VH: B4 VH
VL: B3 VL
notes: Humanized form of #224; also called VH9 + VL6

The target in the first assay is T1, Human TNFR2-His (Sino 10417-H08H) (human, UniProt P20333 23-257).
T1 construct: Bought protein; also called recombinant human TNFR2 protein; not shown: His tag
T1 sequence (looked up): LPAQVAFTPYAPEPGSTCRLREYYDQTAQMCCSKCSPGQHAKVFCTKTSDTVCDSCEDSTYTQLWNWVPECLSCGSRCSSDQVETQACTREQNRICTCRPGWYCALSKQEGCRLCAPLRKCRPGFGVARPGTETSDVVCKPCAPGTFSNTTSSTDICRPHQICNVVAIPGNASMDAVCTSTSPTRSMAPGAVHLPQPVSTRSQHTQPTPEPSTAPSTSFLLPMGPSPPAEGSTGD
The experiment in a line: ELISA, human TNFR2-His coated. As to the method:
(§1) The test humanized antibody against TNFR2 (as described in Example 1, the antibody was comprised of variable regions linked to IgG-Fc; the WT chimeric antibody also adopted the IgG-Fc structure) was subjected to 3.33-fold gradient dilution, loaded with 100 μl/well, and incubated with shaking at room temperature for 1.5 hours. The plate was washed, and then a working solution of murine anti-human IgG Fc-HRP (diluted at 1:10000) was added, loaded with 100 μl/well, and incubated with shaking at room temperature for 1.0 hour. The plate was washed again, and then the substrate TMB of HRP was added to develop colour. A stop solution was added to stop the reaction, and then a microplate reader (MD 13) was used to read the absorbance value. The binding curve of an antibody was drawn with antibody concentration as the abscissa and corresponding OD value as the ordinate, and fitted with four parameters (GraphPad Prism9) to calculate the EC50 value. The smaller the EC50 value, the stronger the binding ability of an antibody to human/cynomolgus monkey TNFR2. The binding effect of a humanized antibody was normalized to its corresponding human-murine chimeric antibody WT (see SEQ ID NOs: 38-43 for the sequence). The higher the percentage value, the better the binding effect of the humanized antibody. The results of binding of an anti-TNFR2 antibody to a human TNFR2 protein are shown in FIG. 1 and Table 4, and the results of binding of an anti-TNFR2 antibody to cynomolgus monkey TNFR2 are shown in FIG. 2 and Table 4.
In general terms: ELISA stands for enzyme-linked immunosorbent assay.
Regarding B1, the EC50 – broadly, the concentration at which the effect is half-maximal – is 0.0168 µg/mL.

As for B2, the EC50 is 0.0173 µg/mL.

For B3, the EC50 is 0.0104 µg/mL.

As to B4, the EC50 is 0.0096 µg/mL.

Take B5: it took 0.0122 µg/mL to reach a half-maximal effect (EC50).

In the case of B6, the midpoint of the response, the EC50, lay at 0.0108 µg/mL.

Molecule B7 showed an EC50 of 0.0116 µg/mL.

In turn, B8 displayed an EC50 of 0.0111 µg/mL.

For B9, a half-maximal effect (EC50) was put at 0.0107 µg/mL.

The next assay has as its target T2, Cynomolgus TNFR2-His (Sino 90102-C08H) (cynomolgus monkey, UniProt A0A2K5VET2 132-366).
T2 construct: Bought protein; also called cynomolgus monkey TNFR2; recombinant cynomolgus monkey TNFR2 protein; not shown: His tag
T2 sequence: T1 sequence (looked up) with S16G, S36P, P117Q, N164H, E210A, S216G, M223V
The experiment in a line: ELISA, cynomolgus TNFR2-His coated. Here is the method: as §1
B1: the EC50 is 0.0123 µg/mL.

The molecule B2 displayed an EC50 of 0.0122 µg/mL.

The molecule B3 yielded an EC50 of 0.00998 µg/mL.

With B4, a half-maximal effect (EC50) was put at 0.00839 µg/mL.

In the case of B5, the response was half-maximal at 0.00969 µg/mL (EC50).

Molecule B6 came in with an EC50 of 0.00962 µg/mL.

Turning to B7, the EC50 came out at 0.00969 µg/mL.

Molecule B8 registered an EC50 of 0.00997 µg/mL.

With B9, the EC50 was found to be 0.00956 µg/mL.

The next assay deals with T1, Human TNFR2-His (Sino 10417-H08H). The experiment in a line: SPR (Biacore T200), antibody captured on Protein A chip. Here is the method:
Biacore was used to detect the specific binding of a test anti-TNFR2 antibody to human and cynomolgus monkey TNFR2 proteins. In this experiment, a Protein A chip was used, the time required for the chip to capture the diluted antibody was determined by manual run, so that the Rmax of the saturated binding to an antigen was 50 RU. […] The affinity of an antibody for an antigen was determined by using multi-cycle dynamics. In each cycle, an antibody was injected and then a TNFR2 protein at a gradient concentration was injected, so that the antigen and the antibody underwent binding and dissociation processes. After each cycle, the Protein A chip was regenerated with Glycine pH 1.5 (removing the protein on the chip). The affinity KD of an antibody and an antigen was fitted with BIAcore T200 analysis software.
On to B1, for which the Kd – broadly, the equilibrium constant for the complex coming apart – was 0.318 nM; the koff (as a rule, the first-order rate constant of dissociation) is 0.000154 s⁻¹; the kon (as a rule, the rate constant with which the complex forms) was 484000 M⁻¹ s⁻¹.

Regarding B2, the Kd is 0.309 nM, the koff worked out at 0.000137 s⁻¹ and the kon was 445000 M⁻¹ s⁻¹.

B3 showed a Kd of 6.57 nM, a koff of 0.000766 s⁻¹ and a kon of 117000 M⁻¹ s⁻¹.

Regarding B4, the Kd worked out at 5.64 nM, the koff was 0.000815 s⁻¹ and the kon was 145000 M⁻¹ s⁻¹.

In turn, B5 yielded a dissociation constant Kd of 4.1 nM, a koff of 0.000726 s⁻¹ and a kon of 177000 M⁻¹ s⁻¹.

In turn, B6 came in with a Kd of 4.31 nM, a koff of 0.000686 s⁻¹ and a kon of 159000 M⁻¹ s⁻¹.

On to B7, for which binding was put at a Kd of 4.28 nM, the koff came out at 0.000682 s⁻¹ and the kon is 159000 M⁻¹ s⁻¹.

The molecule B8 returned a Kd of 4.08 nM, a dissociation rate constant (koff) of 0.000697 s⁻¹ and a kon of 171000 M⁻¹ s⁻¹.

B9 returned a Kd of 5.59 nM, a koff of 0.00072 s⁻¹ and a kon of 129000 M⁻¹ s⁻¹.

Another assay concerns the target T3, human TNFR2 on the surface of CHO-TNFR2 cells (human, UniProt P20333 23-461).
T3 construct: whole, on cells
T3 sequence (looked up): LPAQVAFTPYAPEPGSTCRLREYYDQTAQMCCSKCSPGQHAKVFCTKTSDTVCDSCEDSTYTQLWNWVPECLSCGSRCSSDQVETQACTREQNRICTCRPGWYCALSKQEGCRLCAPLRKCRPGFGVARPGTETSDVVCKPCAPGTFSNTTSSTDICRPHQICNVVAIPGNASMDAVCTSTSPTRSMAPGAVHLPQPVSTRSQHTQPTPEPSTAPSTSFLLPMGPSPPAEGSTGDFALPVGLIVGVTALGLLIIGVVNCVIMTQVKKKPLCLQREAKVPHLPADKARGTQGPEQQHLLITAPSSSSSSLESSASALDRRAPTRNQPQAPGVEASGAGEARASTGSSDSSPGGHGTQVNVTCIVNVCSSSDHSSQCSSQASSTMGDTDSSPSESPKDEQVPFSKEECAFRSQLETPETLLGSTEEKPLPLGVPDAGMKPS
As to the kind of experiment: competition flow cytometry on CHO-TNFR2 cells, competitor TNFα-biotin; area under the MFI curve. More on the design: unit not given beside the values. As to the method: CHO stable cells highly expressing human TNFR2 were used for the experiment (the same as CHO-TNFR2 in Example 4). The CHO-TNFR2 cells were digested, washed twice with DPBS, then stained with Live/Dead (L/D) (20 minutes at room temperature), and plated at a density of 1×10⁵ cells/50 μl/well. A test anti-TNFR2 antibody was diluted to 6 μg/ml with a staining buffer as the starting concentration: the antibody was subjected to 3.33-fold gradient dilution, with a total of 7 concentration points. The diluted antibody was added to the plated cells at 50 μl/well, and the mixture was mixed well by gentle pipetting, and incubated at 4° C. for 30 minutes. Then the diluted 100 ng/ml of human TNFα-biotin was added at 100 μl/well, and the mixture was mixed well by gentle pipetting, and then incubated at 4° C. for 30 minutes. The mixture was washed twice with a staining buffer, and then 0.12 μg/ml PE-streptavidin (BioLegend, Cat #405204) was added at 100 μl/well; the resulting mixture was incubated at 4° C. for 30 minutes. The mixture was washed twice with a staining buffer, and then 150 μl of staining buffer was added to resuspend the cells; signals were detected by a flow cytometer (Thermo Attune NxT). The inhibitory curve of an antibody was drawn with antibody concentration as the abscissa and corresponding MFI value as the ordinate, and fitted with four parameters (GraphPad Prism9) to calculate the IC50 value. The smaller the IC50 value, the stronger the ability of an antibody to inhibit the binding of human TNFα to human TNFR2. The blocking effect of a humanized antibody was normalized to its corresponding human-murine chimeric WT antibody. The higher the percentage value, the better the inhibitory effect of the humanized antibody.
For orientation: In flow cytometry, cells or beads pass a laser one at a time.
In turn, B1 had an AUC of 7320.

Molecule B2 registered an AUC of 7260.

As for B3, the AUC was 20300.

B4: the AUC was 19600.

As to B5, the AUC is 18700.

The molecule B6 displayed an AUC of 19200.

The molecule B7 showed an AUC of 14600.

Turning to B8, the AUC is 13900.

On to B9, for which the AUC is 14200.
